From patent US11891427B2, “Amidated peptides and their deamidated counterparts displayed by non-HLA-a*02 for use in immunotherapy against different types of cancers” (Immatics Biotechnologies GmbH, priority 2020, dated 2024)

target: HLA-A*01:01 (Homo sapiens, UniProt P04439, A114D/A174V/A182V/D101N/D185E/E176A/E190D/L180R/Q94H/R68K/S129P/T187R/V100A/V91M/W191G); assay: MHC binding assay (UV-ligand exchange, beta2m ELISA); settings: binding to HLA-A*01:01, ranged by peptide exchange yield
Excerpt: (§1) Candidate peptides for T cell based therapies according to the present invention were further tested for their MHC binding capacity (affinity). The individual peptide-MHC complexes were produced by UV-ligand exchange, where a UV-sensitive peptide is cleaved upon UV-irradiation and exchanged with the peptide of interest as analyzed. Only peptide candidates that can effectively bind and stabilize the peptide-receptive MHC molecules prevent dissociation of the MHC complexes. To determine the yield of the exchange reaction, an ELISA was performed based on the detection of the light chain (β2m) of stabilized MHC complexes. The assay was performed as generally described in Rodenko et al. (Rodenko et al., 2006).
(§2) 96 well MAXISorp plates (NUNC) were coated over night with 2 μg/ml streptavidin in PBS at room temperature, washed 4× and blocked for 1 h at 37° C. in 2% BSA containing blocking buffer. Refolded HLA-A*02:01/MLA-001 monomers served as standards, covering the range of 15-500 ng/ml. Peptide-MHC monomers of the UV-exchange reaction were diluted 100-fold in blocking buffer. Samples were incubated for 1 h at 37° C., washed four times, incubated with 2 μg/ml HRP conjugated anti-β2m for 1 h at 37° C., washed again and detected with TMB solution that is stopped with […]. Absorption was measured at 450 nm. Candidate peptides that show a high exchange yield (preferably higher than 50%, most preferred higher than 75%) are generally preferred for a generation and production of antibodies or fragments thereof, and/or T cell receptors or fragments thereof, as they show sufficient avidity to the MHC molecules and prevent dissociation of the MHC complexes.

Substance	Peptide exchange
25 (FTDLITDESINY) [compound 25]	++++ (≥75% = ++++)
7 (VTRDDTASY) [compound 7]	++ (≥20% = ++)
90 (HVDNSNLNY) [compound 90]	++++ (≥75% = ++++)
86 (ILPDITTTY) [compound 86]	++ (≥20% = ++)
85 (EVQDHSTSSY) [compound 85]	++ (≥20% = ++)
80 (LTNDQTLRL) [compound 80]	+++ (≥50% = +++)
52 (LTEVEKDATALY) [compound 52]	++++ (≥75% = ++++)
60 (HVKDATMGY) [compound 60]	+++ (≥50% = +++)
20 (TSDTSQYDTY) [compound 20]	+++ (≥50% = +++)
34 (LSDLSLADI) [compound 34]	++ (≥20% = ++)
93 (HADLTTLTF) [compound 93]	++ (≥20% = ++)
6 (ISDITEKNSGLY) [compound 6]	++++ (≥75% = ++++)
33 (ISDGMDSSAHY) [compound 33]	++++ (≥75% = ++++)
51 (RVDDITDQF) [compound 51]	++ (≥20% = ++)
58 (GTDQTGKGLEY) [compound 58]	+++ (≥50% = +++)
82 (VTDVTEEHY) [compound 82]	++++ (≥75% = ++++)
19 (MTDVDRDGTTAY) [compound 19]	++++ (≥75% = ++++)
87 (ITDDTVQTY) [compound 87]	++++ (≥75% = ++++)
49 (PSDGSMHNY) [compound 49]	++++ (≥75% = ++++)

Substance	Peptide exchange
4 (YIDDVTLI) [compound 4]	++ (≥20% = ++)
94 (YSIDVTNVM) [compound 94]	+++ (≥50% = +++)
18 (GTDKQDSTLRY) [compound 18]	++++ (≥75% = ++++)
59 (ILFSDSTRLSF) [compound 59]	+++ (≥50% = +++)
81 (VTETMGIDGSAY) [compound 81]	++++ (≥75% = ++++)
12 (ITDTSLNLF) [compound 12]	++++ (≥75% = ++++)
91 (GVDDTSLLY) [compound 91]	++++ (≥75% = ++++)
16 (VTQDDTGFY) [compound 16]	++++ (≥75% = ++++)
37 (RSLDCTVKTY) [compound 37]	+++ (≥50% = +++)
79 (FTDTSSYEY) [compound 79]	++++ (≥75% = ++++)
89 (HVSDVTVNY) [compound 89]	++ (≥20% = ++)
10 (QVDGSLLVI) [compound 10]	++ (≥20% = ++)
11 (NHITDTSLNLF) [compound 11]	++ (≥20% = ++)
92 (GQYDDSLQAY) [compound 92]	++ (≥20% = ++)
83 (TFVDASRTLY) [compound 83]	++++ (≥75% = ++++)
88 (WLDRSTILY) [compound 88]	++++ (≥75% = ++++)
13 (TANYDTSHY) [compound 13]	++ (≥20% = ++)
50 (RSIDVTGQGF) [compound 50]	++ (≥20% = ++)
84 (EVEGVIDGTYDY) [compound 84]	++++ (≥75% = ++++)

target: HLA-A*24:02 (Homo sapiens, UniProt P04439, D101N/D140Y/D185E/E176V/E190D/F33S/G103R/G107R/I119L/I121M/I306V/K335N/L105A/L180Q/L300P/N151K/N90K/Q86E/Q94H/R106L/R138H/R89G/T104I/T345S/V100E/W191G/Y123F); assay: as above; settings: binding to HLA-A*24:02, ranged by peptide exchange yield
Excerpt: as §1, §2

Substance	Peptide exchange
64 (FHYDDTAGYF) [compound 64]	+ (≥10% = +)
9 (IFDETGRF) [compound 9]	++ (≥20% = ++)
100 (EYQDFSTLF) [compound 100]	++++ (≥75% = ++++)
101 (VYLDASKVPGF) [compound 101]	++++ (≥75% = ++++)
26 (IYPDASLLIQNI) [compound 26]	++++ (≥75% = ++++)
103 (RQDESYLNF) [compound 103]	++ (≥20% = ++)
99 (VYVDTTELAL) [compound 99]	++++ (≥75% = ++++)
38 (KLTDNSNQF) [compound 38]	++ (≥20% = ++)
43 (FFTDKTLSF) [compound 43]	++++ (≥75% = ++++)
